Laboratory results: patent publication US20260001914A1, “MACROCYCLIC PEPTIDES TARGETING KRAS” (Merck Sharp & Dohme LLC, priority 2022, published 2026)
Several values for one entry are separate records, joined by “and”; a condition that tells them apart may be missing. Equal entries are not always repeated.

What follows are substances tested against Biotin-labeled KRAS-G12D protein (UniProt P01116-2 1-169, limits assumed, biotin label (site not stated); loaded with BODIPY-GDP) (assay: cell-based or functional assay).

SOS assay EC50 | Substance
7030 nM | cyclo(1Nal-R-Phe4CH2NHAc-Nle-Y-Nle-NMeF-daMeC-C1Ac) (peptide)
575 nM | cyclo(1Nal-R~Phe4Gn-Nle-Y-Nle-NMeF-daMeC-C1Ac) (peptide)
7270 nM | cyclo(C1Ac-F-R-3Pal-cBuA-Ape-Nle-NMe3Pal-C) (peptide)
9150 nM | cyclo(C1Ac-F-R-3Pal-cBuA-Hag-Nle-NMe3Pal-C) (peptide)
7790 nM | cyclo(F-6Quin4NH2-Phe4Gn-L-TyrOMe-Nle-NMeF-C1-C1Ac) (peptide)
1160 nM | cyclo(F-ArgMeMe-Phe4Gn-L-TyrOMe-Nle-NMeF-dC1-C1Ac) (peptide)
830 nM | cyclo(F-DabN3-3Pal-Nle-Phe2F-Nle-NMe3Pal-c3amCb1c) (peptide)
1230 nM | cyclo(F-IPG-d3Pal-cBuA-Phe2F-Nle-NMe3Pal-amBCP) (peptide)
432 nM | cyclo(F-MorNva-3Pal-cBuA-Phe2F-Nle-NMe3Pal-amBCP) (peptide)
1.14 nM | cyclo(F-NH2IMNva-d3Pal-cBuA-Phe2F-Nle-NMe3Pal-amBCP) (peptide)
267 nM | cyclo(F-NMeDabN3-3Pal-Nle-Phe2F-Nle-NMe3Pal-amBCP) (peptide)
753 nM | cyclo(F-NMeDabN3-3Pal-Nle-Phe2F-Nle-NMe3Pal-c3amCb1c) (peptide)
612 nM | cyclo(F-NMeNvalmid-3Pal-Nle-Phe2F-LysN3-NMe3Pal-c3amCblc) (peptide)
272 nM | cyclo(F-NMeNvalmid-3Pal-Nle-Phe2F-Nle-NMe3Pal-tamcPr) (peptide)
96.2 nM | cyclo(F-NMeR-3Pal-Nle-TyrOMe-Nle-NMeF-c3amCblc) (peptide)
1200 nM | cyclo(F-NMeR-d3Pal-NMeNle-Phe2F-Nle-NMe3Pal-amBCP) (peptide)
242 nM | cyclo(F-NO2IMNva-d3Pal-cBuA-Phe2F-Nle-NMe3Pal-amBCP) (peptide)
4320 nM | cyclo(F-Nva-Phe4Gn-L-TyrOMe-Nle-NMeF-dC1-C1Ac) (peptide)
5590 nM | cyclo(F-OmN3-3Pal-Nle-Phe2F-Nle-NMe3Pal-c3amCblc) (peptide)
642 nM | cyclo(F-R-3Pal-Nle-I-Nle-NMe3Pal-aMeC1-C1Ac) (peptide)
728 nM | cyclo(F-R-3Pal-Nle-Phe2F-Nle-NMe3Pal-aMeC7-C1Ac) (peptide)
370 nM | cyclo(F-R-3Pal-Nle-Phe2F-Nle-NMe3Pal-aMeC-C1Ac) (peptide)

SOS assay EC50 | Substance
3070 nM | cyclo(F-R-3Pal-Nle-PraMe-Nle-NMe3Pal-aMeC1-C1Ac) (peptide)
6390 nM | cyclo(F-R-3Pal-Nle-SerOMe-Nle-NMe3Pal-aMeC1-C1Ac) (peptide)
186 nM | cyclo(F-R-3Pal-Nle-TyrOMe-Nle-NMeF-13amCb1c) (peptide)
193 nM | cyclo(F-R-3Pal-Nle-TyrOMe-Nle-NMeF-bhcLeu) (peptide)
117 nM | cyclo(F-R-3Pal-Nle-TyrOMe-Nle-NMeF-cBuAc) (peptide)
3440 nM | cyclo(F-R-3Pal-Nle-TyrOMe-Nle-NMeF-cBuTE-C1Ac) (peptide)
256 nM | cyclo(F-R-3Pal-Nle-TyrOMe-Nle-NMeF-cHxclacid4NH2) (peptide)
949 nM | cyclo(F-R-3Pal-Nle-TyrOMe-Nle-NMeF-dbhcLeu) (peptide)
329 nM | cyclo(F-R-3Pal-Nle-V-Nle-NMe3Pal-aMeC1-C1Ac) (peptide)
946 nM | cyclo(F-R-3Pal-Nle-all-Nle-NMe3Pal-aMeC1-C1Ac (peptide)
526 nM | cyclo(F-R-3Pal-Nle-deHLeu-Nle-NMe3Pal-aMeC1-C1Ac) (peptide)
861 nM | cyclo(F-R-3Pal-cBuA-AbuF3-Nle-NMeF-aMeC1-C1Ac) (peptide)
2 nM | cyclo(F-R-3Pal-cBuA-Phe2F-Nle-NMeF-aMeC1-C1Ac) (peptide)
1.35 nM | cyclo(F-R-3Pal-cBuA-Phe24F2-Nle-NMe3Pal-aMeC1-C1Ac) (peptide)
298 nM | cyclo(F-R-3Pal-cBuA-Pra-Nle-NMeF-aMeC1-C1Ac) (peptide)
943 nM | cyclo(F-R-3Pal-cBuA-SerOMe-Nle-NMeF-aMeC1-C1Ac) (peptide)
2820 nM | cyclo(F-R-3Pal-cBuA-TyrOMe-124triazole-dC~C1Ac) (peptide)
900 nM | cyclo(F-R-3Pal-cBuA-TyrOMe-AheNMeAhe-aMeC-C1Ac) (peptide)
1560 nM and 324 nM | cyclo(F-R-3Pal-cBuA-TyrOMe-AheNMeHag-aMeC-C1Ac) peak 1 (peptide)
650 nM | cyclo(F-R-3Pal-cBuA-TyrOMe-AheNMeHag-aMeC-C1Ac) peak 2 (peptide)
238 nM | cyclo(F-R-3Pal-cBuA-TyrOMe-HagNMeHag-daMeC-C1Ac) (peptide)
5.47 nM | cyclo(F-R-3Pal-cBuA-TyrOMe-Nle-NMeF-amBCP) (peptide)

SOS assay EC50 | Substance
7340 nM | cyclo(F-R-3Pal-cBuA-TyrOMe-Nle-NMeF-spiro44) (peptide)
299 nM | cyclo(F-R-3Pal-cBuA-TyrOMe-RdHagNMeHag-aMeC-C1Ac) (peptide)
656 nM | cyclo(F-R-3Pal-cBuA~TyrOMe-Nle-NMeF-spiro54) (peptide)
1.59 nM | cyclo(F-R-4CF33Pal-cBuA-Phe2F-Nle-NMe3Pal-aMeC1-C1Ac) (peptide)
1.26 nM | cyclo(F-R-4F3Pal-cBuA-Phe2F-Nle-NMe3Pal-daMeC1-C1Ac) (peptide)
142 nM | cyclo(F-R-Phe4Gn-Nle-TyrOMe-Nle-NMeF-SamHex) (peptide)
13.8 nM | cyclo(F-R-Phe4Gn-Nle-TyrOMe-Nle-NMeF-acBu) (peptide)
419 nM | cyclo(F-R-Phe4Gn-Nle-TyrOMe-Nle-NMeF-cBuAc) (peptide)
15.6 nM | cyclo(F-R-Phe4Gnc2-Nle-TyrOMe-Nle-NMeF-c3amCblc) (peptide)
60.6 nM | cyclo(F-R-Phe4cMph-Nle-TyrOMe-Nle-NMeF-c3amCblc) (peptide)
35.3 nM | cyclo(F-R-Phe4cPyrr-Nle-TyrOMe-Nle-NMeF-c3amCblc) (peptide)
0.998 nM | cyclo(F-R-PyrimAla-cBuA-Phe2F-Nle-NMe3Pal-aMeC1-C1Ac) (peptide)
1140 nM | cyclo(F-R-d3Pal-cBuA-Phe2F-Nle-NMe3Pal-BCP) (peptide)
3.19 nM | cyclo(F-R-d3Pal-cBuA-Phe2F-Nle-NMe3Pal-amBCP) (peptide)
387 nM | cyclo(F-R-d3Pal-cBuA-Phe2F-Nle-NMe3Pal-amBYA) (peptide)
6820 nM | cyclo(F-R-d3Pal-cBuA-Phe2F-Nle-NMe3Pal-amOBCH) (peptide)
37.8 nM | cyclo(F-R-d3Pal-cBuA-TyrOMe-Nle-NMeF-Smcysteamine-C1Ac) (peptide)
4490 nM | cyclo(F-R-hK-Nle-Bip-hY-NMeF-Cysteamine-C1Ac) (peptide)
503 nM | cyclo(F-R-hS-cBuA-Phe2F-Nle-NMeF-aMeC1-C1Ac) (peptide)
4.6 nM | cyclo(F-R~3Pal-cBuA-Phe26F2-Nle-NMe3Pal-aMeC1-C1Ac) (peptide)
